Test: yeast display, Sf9 membrane polyspecificity reagent, FACS + sequencing; frameworks hold sequencing errors
In short: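 Nanobodies came from a synthetic yeast display library in Saccharomyces cerevisiae BJ5465, induced with galactose for 36–48 hours and stained for 1 hour at 4 °C with 10% biotinylated, detergent-solubilized Sf9 membrane reagent. Cells were enriched on streptavidin microbeads and then FACS-sorted, with low and high (top ~1%) gates set on anti-HA fluorescence for expression and streptavidin fluorescence for reagent binding. Each polyreactivity label reflects the gate a clone came from. Genes were amplified by colony PCR, sequenced by MiSeq 2 × 250 and filtered by CDR length.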

Sequence	polyreactivity (PSR sort gate)
QVQLVESGGGLVQAGGSLRLSCAASGFISGKYAMGWNRQAPGKERELVATIRSGGSTNYADSVKGRFTISRDNAKNTVYLQMNSLKPEDTAVYYCAKRRGSRGVIYDYWGQGTQVTVSS	high polyreactivity
QVQLVESGGGLVQAGGSLRLSCAASGFISGYYTMRWYRQAPGKERELVAVINSGGSTYYADSVKGRFTISRDNAKNTVYLQMNSLKPEDTAVYYCAKLGGKYSRYYYWGQGTQVTVSS	low polyreactivity
QVQLVESGGGLVQAGGSLRLSCAASGFISNGYAMGWYRQAPGKEREFVASISSSGGSTYYADSVKGRFTISRDIAKNTVYLQMNSLKTEDTAVYYCNARYWWVIKVKLGYWGQGTQVTVSS	low polyreactivity
QVQLVESGGGLVQAGGSLRLSCAASGFISSENAMGWYRQAPGKERELVAAISSGGSTNYADSVKGRFTISRDNAKNTVYLQMNSIKREDTAVYYCAATLPGWYNEDDSWGQGTQVTVSS	low polyreactivity
QVQLVESGGGLVQAGGSLRLSCAASGFISYENAMGWYRQAPGKERELVAAISSGGSTNYADSVKGRFTISRDNAKNTVYFQMNSLKPEDTAVYYCAATLPGWYNEDDSWGQGTQVTVSS	low polyreactivity
QVQLVESGGGLVQAGGSLRLSCAASGFISYFYTMGWYRPAPGKERELVAAISNTGDRTYYADSVKGRFTISRDNAKNTVYLQMNSLKPEDTAVYYCNAVVRGTYWQSFDYWGQGTQVTVSS	high polyreactivity
QVQLVESGGGLVQAGGSLRLSCAASGFIVHTNTMGWYIQAPGKERELVAAMSSGGRTNYADSVKGRFTISRDNAKNTVYLQMNSLKPEDTAVYYCAADWHSWRWGYYYWGQGTQVTVSS	low polyreactivity
QVQLVESGGGLVQAGGSLRLSCAASGFIVKRYARGWYRQAPGKERELVAAITSSGGRTYYADSVKGRFTISRDTAKNTVYLQMNSLKPEDTAVYYCAKGWSTYYTKMNYWGQGTQVTVSS	high polyreactivity
QVQLVESGGGLVQAGGSLRLSCAASGFIYGFYVMGWYRQAPGKERELVAAITTSGDSTYYADSVKGRFTISRDNAKNTVFLQMNSLKPEDTAVYYCAADNVHSEYEYWGQGTQVTVSS	high polyreactivity
QVQLVESGGGLVQAGGSLRLSCAASGFIYGTYAMGWYRQAPGKEREFVAAITRSGSSTYYADSVKGRFTISRDNAKNTVYLLMNSLKPEDTAVYYCAADLTRGRFRYYYWGLGTQVTVSS	high polyreactivity
QVQLVESGGGLVQAGGSLRLSCAASGFIYHNAMGWYRQAPGKERELVARITWSGGSTSYADSVKGRFTISRDNAKNTVYLQMTSLKPEETAVYYCAARGVVYRYGASRGYWGQGTQVTVSS	high polyreactivity
QVQLVESGGGLVQAGGSLRLSCAASGFLFGWNAMGGYRQAPGKERELVAAISARGGSTSYADSVKGRFTISRDTAKNTVYLQMNSLKPEDTAVYYCSAKSAFPLDYWGQGTQVTVSS	high polyreactivity
QVQLVESGGGLVQAGGSLRLSCAASGFLFVVYTMGWYRQAPGKERELVAAITSGGSTYYADSVKGRFTISRDNAKNTVYLQMNSLKPEDTAVYYCNALASRYPAYYYWGQGTQVTVSS	low polyreactivity
QVQLVESGGGLVQAGGSLRLSCAASGFNFADNAMGWYRQAPGKEREFVAAISRSGGTTYYADSVKGRFTISRDNAKNTVYLQMNSLKPEDTAVYYCATRLTSYPDYDYWGQGTQVTLSS	low polyreactivity
QVQLVESGGGLVQAGGSLRLSCAASGFNFASYAMGWYRQAPGKERELVAAISWRGGSTYYADSVKGRFTISRDNAKNTVYLQMNSLKPEDTAVYYCNAYVYVGTGRGYDTLDYWGQGTQVTLSS	low polyreactivity
QVQLVESGGGLVQAGGSLRLSCAASGFNFDGNALGWYRPAPGKERELVAAIRSGGRTNYADSVKGRFTISRDNAKNTVYLQMNSLKPEDTAVYYCAARSIYPYYYRRDNRYYYWGQGTQVTVSS	high polyreactivity
QVQLVESGGGLVQAGGSLRLSCAASGFNFGCYCMGWYIQAPGKERELVAAITWSGVRTYYADSVKGRFTISRDNAKNTVYLQMNSLKPEDTAVYYCAASGEGGYLENNEFDYWGQGTQVTVSS	low polyreactivity
QVQLVESGGGLVQAGGSLRLSCAASGFNFGGYAMGWYRQAPGKERELVARITRSGGSTYYADSVKGRFTISRDNAKNTVYLQMNSLKPEDTAVYYCNADTPPNPYYYWGQGTQVTVSS	low polyreactivity
QVQLVESGGGLVQAGGSLRLSCAASGFNFGINAMGWYRQAPGKEREWVAAINQSGDRTYYADSVKGRFTISRDNAKNTVYLQMNSLNPEDTEVYYCASLSTYRTWYGDWGQGTQVTVSS	high polyreactivity
QVQLVESGGGLVQAGGSLRLSCAASGFNFGWYAMGWYRQAPGKERELVAAISGRGGSTNYADSVKGRFTISRDNAKNTVYLQMNSLKPEDTAVYYCNAALSPWGNNYWGQGTQVSVSS	high polyreactivity
QVQLVESGGGLVQAGGSLRLSCAASGFNFSYNAMGWYRQAPGKERELTYADSVKGRFTISRDNAKNTVYLQMNSLKLEDTAVYYCAAGEYGRQYDGDYWGQGTQVTVSS	low polyreactivity
QVQLVESGGGLVQAGGSLRLSCAASGFRLNAMGWYRQAPGKERELVAAITASGGSTYYADSVKGRFTISRDNAKNTVYLQMNSQKPEDTAVYYCARYHPVRGYNYWGQGTQVTVSS	high polyreactivity
QVQLVESGGGLVQAGGSLRLSCAASGFSFDSNAMGWYRQAPGKERELVAVITSSGGRTYYADSVKGRFTISRDNAKNTVYLQMNSLKPEDTAVYYCAAAKKFFWYEYDYWGQGTQVSVSS	high polyreactivity
QVQLVESGGGLVQAGGSLRLSCAASGFSFRYYAMGWYRQAPGKERELVAAISSGGNTRYADSVKGRFTISRDNAKNTVYLQMNSLKPEDTAVYYCARRPGAWKYVYTGDYWGQGTQVTVSS	high polyreactivity
QVQLVESGGGLVQAGGSLRLSCAASGFSFSRNTMGWYRQAPGKDRELVATIDRGGRTNYADSVKGRFTISRDNAKNTVYLQMNSLKPEDTAVFYCNAYWRRFPQYDYWGLGTQVTVSS	high polyreactivity
QVQLVESGGGLVQAGGSLRLSCAASGFTAYGYAMGWYRQAPGQERELVAAISRSGGSTYYADSVKGRFTISRDNAKNTVYLQMYSLKPDDTAVYYCAVAVGREYVYRYYYWGQGTQVTVSS	high polyreactivity
QVQLVESGGGLVQAGGSLRLSCAASGFTCLFYDMGWYRQAPGKERELVASITWSGTSTYADSVKGRFTISRDNAINTVYLQMNSLKPEDTAVYYCNAEPHGVKVSYDYWGQGTQVTVSS	low polyreactivity
QVQLVESGGGLVQAGGSLRLSCAASGFTFAAYDKGWSRQAPGKELELVAAITKSGASTYYADSVKGRFTISRDIAKNTFYLQMNSLKPEDTAVYYCAAKNTLYSYYYWGQGTQVTVSS	high polyreactivity
QVQLVESGGGLVQAGGSLRLSCAASGFTFADNAMGWYRQATGKERELVAAISWNGGRTFYADSVKGRFTISRDNAKNTVYLQMNSLKPEDSAVYYCNAVFIVRKYTGWSTGEGYWGQGTQVTVSS	high polyreactivity
QVQLVESGGGLVQAGGSLRLSCAASGFTFAGNAMGWYRKAPGKERELVAGISRRGGNTYYADSVKGRFTISRDIAKNTVYLQMNSLKPEDTAVYYCARYSSSYWGQGTQVTVSS	high polyreactivity

Reference: the nanobody polyreactivity screen of Harvey et al. (2022)
